Read-outs that look alike come from different tables or passages of the source. Blank lines part the entries; values can stand above or below the molecule they belong to.
What was measured:
human GPC3 on cells [1] = biological target: T1, human GPC3 on cells (human, UniProt P51654 25-554); experiment: FACS, GPC3-CHOK1 cells
human GPC3 on cells [2] = biological target: T1, human GPC3 on cells; experiment: FACS, Hep3B cells
human GPC3 on cells [3] = biological target: T1, human GPC3 on cells; experiment: FACS, GPC3-CHOK1 cells; remark: listed apart in the source
human GPC3 on cells [4] = biological target: T1, human GPC3 on cells; experiment: cell-based or functional assay
human GPC3 on cells [5] = biological target: T1, human GPC3 on cells; experiment: FACS, Huh-7 cells
human GPC3 on cells [6] = biological target: T1, human GPC3 on cells; experiment: FACS, HEPG2 cells
human GPC3 on cells [7] = biological target: T1, human GPC3 on cells; experiment: FACS, Hep3B cells; remark: listed apart in the source
human GPC3 on cells [8] = biological target: T1, human GPC3 on cells; experiment: FACS, GPC3-CHOK1 cells; remark: listed apart in the source
human GPC3 on cells [9] = biological target: T1, human GPC3 on cells; experiment: FACS, HEPG2 cells; remark: listed apart in the source
human GPC3 on cells [10] = biological target: T1, human GPC3 on cells; experiment: FACS, GPC3-CHOK1 cells; remark: listed apart in the source
human GPC3 on cells [11] = biological target: T1, human GPC3 on cells; experiment: FACS, GPC3-CHOK1 cells; remark: listed apart in the source
human GPC3 on cells [12] = biological target: T1, human GPC3 on cells; experiment: FACS, Huh-7 cells; remark: listed apart in the source
human GPC3 on cells [13] = biological target: T1, human GPC3 on cells; experiment: FACS, HEPG2 cells; remark: listed apart in the source
human GPC3 on cells [14] = biological target: T1, human GPC3 on cells; experiment: FACS, Huh-7 cells; remark: listed apart in the source
human GPC3 on cells [15] = biological target: T1, human GPC3 on cells; experiment: FACS, GPC3-CHOK1 cells; remark: listed apart in the source
human GPC3 on cells [16] = biological target: T1, human GPC3 on cells; experiment: FACS on GPC3-CHOK1 cells, Alexa Fluor 647 anti-human IgG, AF647-MFI
human GPC3 on cells [17] = biological target: T1, human GPC3 on cells; experiment: FACS, HEPG2 cells
From the text: (§1) FACS was used to evaluate the binding activity of 52H5D3B8-6 #-VH1+VL1 and 52H5D3B8-6 #-VH2+VL3 with comparison to GC33 (Chugai Pharmaceutical) and Y035 (Carsgen Therapeutics, U.S. Patent Application US20190046659) on human GPC3 over-expressed CHOK1 cells and HEPG2 cells.

human GPC3 on cells [18] = biological target: T1, human GPC3 on cells; experiment: FACS, GPC3-CHOK1 cells
From the text: as §1

human GPC3 on cells [19] = biological target: T1, human GPC3 on cells; experiment: FACS, HEPG2 cells; remark: listed apart in the source
Description: (§2) To evaluate the antigen binding property, the humanized antibodies were analyzed for their binding to human GPC3 over-expressed CHOK1 cells, HEPG2 cells, Hep3B cells and Huh-7 cells by FACS. Briefly, GPC3-CHOK1 cells, HEPG2 cells, Hep3B cells and Huh-7 cells were firstly incubated with Fc blocking reagent at 4° C. for 15 mins. Cells were washed by FACS buffer and divided to each well with 4-fold serially diluted humanized antibodies starting at 10 μg/mL at 4° C. for 60 mins. Cells were washed by FACS buffer and fixed with 2% PFA at RT for 15 mins. […] The 16 humanized antibodies were separated into two plates.

human GPC3 on cells [20] = biological target: T1, human GPC3 on cells; experiment: FACS, Huh-7 cells
Description: as §2

human GPC3 on cells [21] = biological target: T1, human GPC3 on cells; experiment: FACS, GPC3-CHOK1 cells; remark: listed apart in the source
Description: as §2

human GPC3 on cells [22] = biological target: T1, human GPC3 on cells; experiment: cell-based or functional assay; remark: listed apart in the source
[23] = biological target: T2, human GPC3-his tag protein (human, UniProt P51654 25-559, limits assumed); experiment: SPR Biacore 8K, mAb captured, affinity ranking
T2 construct: recombinant soluble antigen used as analyte in all Biacore runs; also called recombinant GPC3 protein; rhGPC3-His; not shown: His tag

human GPC3 on cells [24] = biological target: T1, human GPC3 on cells; experiment: cell-based or functional assay; remark: listed apart in the source
human GPC3 on cells [25] = biological target: T1, human GPC3 on cells; experiment: FACS, Hep3B cells
Description: as §2

[26] = biological target: T2, human GPC3-his tag protein; experiment: SPR Biacore, mAb captured on CM5, GPC3-his dilution series (full kinetics)
Description: The binding of the humanized antibodies to recombinant GPC3 protein (human GPC3-his tag) was tested by Biacore using a capture method. 52H5D3B8-6 #-V+VL, 52H5D3B8-6 #-VH1+VL1, 52H5D3B8-6 #-VH1+VL3, 52H5D3B8-6 #-V1+VL4, 52H5D3B8-6 #-VH2+VL4, 52H5D3B8-6 #-VH3+VL1, 52H5D3B8-6 #-VH3+VL3 mAbs were captured using CM5 sensor chip. A serial dilution of human GPC3-his tag protein was injected over captured antibody for 2 mins at a flow rate of […]. The antigen was allowed to dissociate for 360 s. All the experiments were carried out on a Biacore T200.

EC50 (human GPC3 on cells [1]): 0.131 µg/mL
EC50 (human GPC3 on cells [2]): 0.341 µg/mL
EC50 (human GPC3 on cells [3]): 0.166 µg/mL
EC50 of ADCC signaling (Jurkat-hCD16a-NFAT luciferase reporter), HEPG2 cells (human GPC3 on cells [4]): 0.415 nM
EC50 of ADCC signaling (Jurkat-hCD16a-NFAT luciferase reporter), Huh-7 cells (human GPC3 on cells [4]): 0.29 nM
EC50 (human GPC3 on cells [5]): 0.182 µg/mL
EC50 (human GPC3 on cells [6]): 0.745 nM
EC50 (human GPC3 on cells [7]): 0.375 µg/mL
EC50 (human GPC3 on cells [8]): 0.122 µg/mL
EC50 (human GPC3 on cells [9]): 1.28 nM
EC50 (human GPC3 on cells [10]): 0.993 nM
EC50 (human GPC3 on cells [11]): 0.956 nM
EC50 (human GPC3 on cells [12]): 0.147 µg/mL
EC50 (human GPC3 on cells [13]): 0.181 µg/mL
EC50 (human GPC3 on cells [14]): 0.953 nM
EC50 (human GPC3 on cells [15]): 0.784 nM
EC50 (read off the curve) (human GPC3 on cells [16]): 0.1 µg/mL
Molecule: GC33 (Chugai Pharmaceutical) (antibody)
EC50 of ADCC cytotoxicity (primary NK cells, LDH), HEPG2 cells (human GPC3 on cells [4]): 0.276 nM
EC50 of ADCC cytotoxicity (primary NK cells, LDH), Huh-7 cells (human GPC3 on cells [4]): 0.172 nM

EC50 (human GPC3 on cells [17]): 0.342 nM
EC50 (human GPC3 on cells [18]): 0.332 nM
EC50 (human GPC3 on cells [19]): 0.0411 µg/mL
EC50 (human GPC3 on cells [20]): 0.0362 µg/mL
EC50 (human GPC3 on cells [21]): 0.038 µg/mL
Kd [23]: 1.97 nM
koff [23]: 0.00112 s⁻¹
kon [23]: 567000 M⁻¹ s⁻¹
EC50 of ADCC signaling (Jurkat-hCD16a-NFAT luciferase reporter), HEPG2 cells (human GPC3 on cells [24]): 0.176 nM
EC50 of ADCC signaling (Jurkat-hCD16a-NFAT luciferase reporter), Huh-7 cells (human GPC3 on cells [24]): 0.322 nM
EC50 (human GPC3 on cells [25]): 0.0626 µg/mL
Kd [26]: 2.24 nM
koff [26]: 0.00111 s⁻¹
kon [26]: 497000 M⁻¹ s⁻¹
B1: 52H5D3B8-6#-VH1+VL1 (antibody, V domains shown)
VH: QVQLVQSGAEVKKPGASVKVSCKASGYTFTDYEMHWVRQAPGQGLEWMGAIHPGSGGTAYNQKFKGRVTMTRDTSTSTVYMELSSLRSEDTAVYYCARYYSYAYWGQGTLVTVSS
VL: DIVMTQTPLSLSVTPGQPASISCRSSQSLVHSNGNTYLQWYLQKPGQSPQLLIYKVSNRFSGVPDRFSGSGSGTDFTLKISRVEAEDVGVYYCFQSIHVPYTFGGGTKLEIK
notes: humanized
EC50 of ADCC cytotoxicity (primary NK cells, LDH), HEPG2 cells (human GPC3 on cells [22]): 0.0845 nM
EC50 of ADCC cytotoxicity (primary NK cells, LDH), Huh-7 cells (human GPC3 on cells [22]): 0.108 nM
